Substitutions are numbered along the chain they refer to.
T1: TREM2 R62H, biotinylated (human, UniProt Q9NZC2, R62H, biotin on the C-terminal BirA biotinylation sequence (enzymatic, BirA))
T1 sequence: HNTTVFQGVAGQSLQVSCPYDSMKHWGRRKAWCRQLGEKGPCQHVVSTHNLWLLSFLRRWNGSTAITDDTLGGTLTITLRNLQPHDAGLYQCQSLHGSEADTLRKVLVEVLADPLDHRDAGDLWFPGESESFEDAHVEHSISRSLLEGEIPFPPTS

T2: TREM2 R47H, biotinylated (human, UniProt Q9NZC2, R47H, biotin on the C-terminal BirA biotinylation sequence (enzymatic, BirA))
T2 sequence: T1 sequence with R29H, H44R

B1: Human IL-34 (19-241) (ligand)
chain: LGNEPLEMWPLTQNEECTVTGFLRDKLQYRSRLQYMKHYFPINYKISVPYEGVFRIANVTRLQRAQVSERELRYLWVLVSLSATESVQDVLLEGHPSWKYLQEVETLLLNVQQGLTDVEVSPKVESVLSLLNAPGPNLKLVRPKALLDNCFRVMELLYCSCCKQSSVLNWQDCEVPSPQSCSPEPSLQYAATQLYPPPPWSPSSPPHSTGSVRPVRAQGEGLL
B2: TREM2 WT, biotinylated (receptor)
chain: T1 sequence with H44R
modifications: biotin on the C-terminal BirA biotinylation sequence (enzymatic, BirA)

How the values were obtained:
Assay in all cases: BLI
[1] = target: T1, TREM2 R62H, biotinylated
[2] = target: T2, TREM2 R47H, biotinylated
[3] = target: oligomeric amyloid beta 42 (UniProt P05067)
[4] = target: B1

Binder	fold decrease in KD (affinity) against TREM2 WT [1] [fold]	fold decrease in KD (affinity) against TREM2 WT [2] [fold]	Kd [3] [nM]	Kd [4] [nM]
B1	~4	~4	–	–
B2	–	–	42.5	16.5

From paper doi:10.1101/2024.05.23.595592 (bioRxiv, 2024)
